Numbering of substitutions follows the chain as printed. Blank lines part the entries; values can stand above or below the binder they belong to.
Assays:
[1] = biological target: T1, huEpoR expressed on the cell surface (UT-7 cells) (human, UniProt P19235 25-508); assay: cell-based or functional assay
T1 sequence (looked up): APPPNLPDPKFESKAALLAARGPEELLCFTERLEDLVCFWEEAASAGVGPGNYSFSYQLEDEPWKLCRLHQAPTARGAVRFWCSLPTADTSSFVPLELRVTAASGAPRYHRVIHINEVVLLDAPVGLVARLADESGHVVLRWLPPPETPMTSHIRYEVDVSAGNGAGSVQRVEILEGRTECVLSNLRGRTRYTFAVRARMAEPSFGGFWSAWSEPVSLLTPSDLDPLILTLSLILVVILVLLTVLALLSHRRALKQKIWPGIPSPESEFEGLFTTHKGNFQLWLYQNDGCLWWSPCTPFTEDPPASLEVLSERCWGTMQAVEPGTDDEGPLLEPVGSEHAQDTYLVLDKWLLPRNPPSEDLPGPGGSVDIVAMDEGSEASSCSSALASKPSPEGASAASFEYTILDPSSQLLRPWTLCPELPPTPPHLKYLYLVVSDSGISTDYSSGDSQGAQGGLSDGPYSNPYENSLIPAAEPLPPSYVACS

mouse EpoR (muEpoR) = biological target: T2, mouse EpoR (muEpoR) (mouse, UniProt P14753 25-249, limits assumed); assay: ELISA on coated muEpoR, scFv-Fc at 5 µg/ml (Example 17)
T2 sequence (looked up): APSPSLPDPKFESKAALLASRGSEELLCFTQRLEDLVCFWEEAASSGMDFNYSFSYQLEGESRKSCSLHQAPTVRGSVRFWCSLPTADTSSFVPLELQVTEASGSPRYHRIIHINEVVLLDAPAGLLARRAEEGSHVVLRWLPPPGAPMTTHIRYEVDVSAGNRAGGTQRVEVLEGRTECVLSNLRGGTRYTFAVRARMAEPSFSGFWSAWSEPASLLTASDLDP

[2] = biological target: T3, huEpoR protein (soluble human erythropoietin receptor) (human, UniProt P19235 25-250, limits assumed); assay: SPR, Biacore T100; scFv-Fc captured on anti-human IgG Fc CM5 chip, EpoR as analyte; 1:1 fit;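 note: measured at 25 °C in HBS-EP buffer with 0.1 mg/ml BSA, flowed at 50 µl/min, 1 min association then dissociation (10 min human, 5 min cyno EpoR)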
T3 construct: also called soluble huEpoR; biotinylated huEpoR
T3 sequence (looked up): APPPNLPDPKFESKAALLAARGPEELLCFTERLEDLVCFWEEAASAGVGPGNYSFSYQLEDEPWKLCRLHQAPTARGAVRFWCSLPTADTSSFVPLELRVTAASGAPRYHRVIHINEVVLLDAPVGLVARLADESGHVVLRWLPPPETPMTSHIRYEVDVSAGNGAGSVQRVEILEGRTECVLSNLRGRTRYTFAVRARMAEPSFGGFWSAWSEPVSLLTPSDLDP

[3] = biological target: T4, cynomolgus monkey EpoR (cynoEpoR) (cynomolgus monkey, UniProt A0A2K5WKK4 25-250); assay: SPR, Biacore T100; scFv-Fc captured on anti-human IgG Fc CM5 chip, EpoR as analyte; steady-state fit; steady-state fit; cyno EpoR
T4 construct: Soluble protein (coated in ELISA, analyte in SPR)
T4 sequence: T3 sequence (looked up) with A19V, G47A, G49S, G51D, Q58H, V112I, S135G, V138I, T148A

[4] = biological target: T5, biotinylated mouse EpoR-Fc protein (muEpoR-Fc) (mouse, UniProt P14753 25-249, limits assumed, biotinylated); assay: ELISA, antibody coated at 1 µg/ml, biotinylated muEpoR-Fc at 5 µg/ml, streptavidin-HRP
T5 construct: also called mouse EpoR (muEpoR); not shown: Fc part
T5 sequence (looked up): T2 sequence (looked up)

binding result [4]: binds
B5: clone 2 IgG2 protein (antibody, V domains shown)
VH: EVQLVQSGGGLVQPGGSLRLSCAASGFTFSSYWMSWVRQAPGKGLEWVANIKPDGSEKYYVDSVKGRFTISRDNAKNSVYLQMNSLRAEDTAVYYCARVSRGGSYSDWGQGTLVTVSS
VL: QSVLTQPPSASGSPGQSVTISCTGTSSDVGGYNYVSWYQQHPGKAPKLMIYEVSKRPSGVPDRFSGSKSGNTASLTVSGLQPEDEADYYCSSYAGRNWVFGGGTQLTVL
notes: Human IgG2 (VH in an IgG2 heavy chain expression vector; light chain constant type matches the variable light chain isotype); also called IgG2 2; IgG22

binding result [4]: binds
B6: clone 7 IgG2 protein (antibody, V domains shown)
VH: B5 VH with Q110K
VL: QSALTQPASVSGSPGQSIIISCTGTRSDIGGYNYVSWYQHHPGRAPKLIIFDVNNRPSGVSHRFSGSKSGNTASLTISGLQAEDEADYYCNSFTDSRTWLFGGGTKLTVL
notes: Human IgG2 (VH in an IgG2 heavy chain expression vector; light chain constant type matches the variable light chain isotype)

binding result [4]: binds
B7: clone 5 IgG2 protein (antibody, V domains shown)
VH: B5 VH with Q6E
VL: QSALTQPASVSGSPGQSITISCTGTSSDVGGYIYVSWYQQHPGKAPKLMIYDVSRRPSGISDRFSGSKSGNTASLTISGLQAEDEADYYCNSYTTLSTWLFGGGTKVTVL
notes: Human IgG2 (VH in an IgG2 heavy chain expression vector; light chain constant type matches the variable light chain isotype); also called IgG2 5; IgG25

The next lines start with the binder.

B1: Mxb 34 (clone 34 scFv-Fc protein) (Fc fusion)
VH: QVQLQQSGAEVKKPGASVKVSCKASGYTFSGYYMHWVRQAPGQGLEWMGWINPNSGSTNYAQKFLGRVTMTRDTSISTAYMELSSLRSDDTAVYYCARGHSGDYFDYWGQGTLVTVSA
VL: EIVLTQSPSSLSASVGDRVTITCRASQSVSSWLAWYQQRPGQAPKLLIYAARLRGGGPSRFSGSGSGTEFTLTISSLQPEDFATYFCQQSYSTPISFGGGTKLEIK
notes: Tested as scFv-Fc (maxibody) with an Fc derived from human IgG1
Average EC50 (nM), UT-7-luciferase (STAT5 reporter) assay [1]: 0.11 nM | Ratio (EC50 of Epo / EC50 of the scFv-Fc), UT-7-luciferase assay [1]: 0.088 | binding result (mouse EpoR (muEpoR)): no binding (tested: 5 µg/ml) | Kd [2]: 378 nM | koff [2]: 0.203 s⁻¹ | kon [2]: 536000 M⁻¹ s⁻¹ | Kd [3]: 5.81 µM

B2: clone 30 IgG2 protein (antibody, V domains shown)
VH: QVQLQESGPGLVKPSQTLSLTCAISGDSVSSNSAAWNWIRQSPSRGLEWLGRTYYRSKWYNDYAVSVKSRMTIKADTSKNQFSLQLNSVTPEDTAVYYCARDEGPLDYWGQGTLVTVSA
VL: QAVLTQPSSVSGAPGQRVTISCTGSSSNLGTGYDVHWYQQLPGTAPKLLIYGNSNRPSGVPDRFSGSKSDTSGLLAITGLQAEDEATYYCQSYDFSLSAMVFGGGTKVTVL
notes: as for B6
binding result [4]: binds

B3: clone 10 IgG2 protein (antibody, V domains shown)
VH: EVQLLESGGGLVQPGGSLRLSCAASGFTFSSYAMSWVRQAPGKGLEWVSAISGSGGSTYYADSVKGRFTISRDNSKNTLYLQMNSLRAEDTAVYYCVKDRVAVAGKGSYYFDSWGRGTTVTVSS
VL: QSVLTQPPSVSEAPGQRVTIACSGSSSNIGNNAVSWYQQLPGKAPTLLIYYDNLLPSGVSDRFSGSKSGTSASLAISGLQSEDEADYYCAAWDDSLNDWVFGGGTKVTVL
notes: as for B6
binding result [4]: binds

B4: Mxb 318 (clone 318 scFv-Fc protein) (Fc fusion)
VH: B5 VH with E1Q, Q6E, A24V, S31K, S35T, D62E, L86V, Y105F
VL: QSVLTQPPSASGSPGQSVTISCTGTSSDVGGYNYVSWYQQHPGRAPKLIIYEVSKRPSGVPDRFSGSKSGNTASLTVSGLQADDEADYYCNSYAGSIYVFGSGTKVTVL
notes: as for B1
Average EC50 (nM), UT-7-luciferase (STAT5 reporter) assay [1]: 0.0154 nM | Ratio (EC50 of Epo / EC50 of the scFv-Fc), UT-7-luciferase assay [1]: 0.623 | binding result (mouse EpoR (muEpoR)): no binding (tested: 5 µg/ml) | Kd [2]: 847 nM | koff [2]: 0.558 s⁻¹ | kon [2]: 659000 M⁻¹ s⁻¹ | Kd [3]: 4.89 µM
